Measurements taken from US20110184152A1 (published 2011).
Positions count from the first letter of the chain named. In names and notes the source's numbering stands.

Columns and labels:
[1] = target: T1, human serum albumin (human, UniProt P02768 25-609); assay: SPR (Biacore), purified construct
T1 construct: also called HSA; HumanSA

[2] = target: T2, mouse serum albumin (mouse, UniProt P07724 25-608); assay: SPR (Biacore), purified construct
T2 construct: also called MSA; MurineSA

[3] = target: T1, human serum albumin; assay: SPR (Biacore), purified construct; remark: listed apart in the source
[4] = target: T2, mouse serum albumin; assay: SPR (Biacore), purified construct; remark: listed apart in the source
[5] = target: T1, human serum albumin; assay: SPR (Biacore), running buffer pH6.0; pH 6
[6] = target: T1, human serum albumin; assay: SPR (Biacore), running buffer pH7.0; pH 7
Description: (§1) Covalent immobilisation of the capture antibody was achieved by standard amine coupling chemistry.

[7] = target: T1, human serum albumin; assay: SPR (Biacore), construct captured from HEK293 supernatant, HSA injected
[8] = target: T1, human serum albumin; assay: SPR (Biacore), running buffer pH5.0; pH 5
Description: as §1

[9] = target: T1, human serum albumin; assay: SPR (Biacore), running buffer pH5.5; pH 5.5
Description: as §1

[10] = target: T1, human serum albumin; assay: SPR (BIAcore)
[11] = target: T1, human serum albumin; assay: affinity as humanised IgG; method not named
[12] = target: T2, mouse serum albumin; assay: affinity as humanised IgG; method not named
[13] = target: T3, rat serum albumin (rat, UniProt P02770 25-608); assay: affinity as humanised IgG; method not named
T3 construct: also called RatSA

[14] = target: T4, IL-1β; assay: SPR (Biacore), construct captured, IL-1β injected
T4 construct: also called IL-1 beta
Protocol: as §1
Kinetic parameters were determined by simultaneous global-fitting of the resulting sensorgrams to a standard 1:1 binding model using Biacore T100 Evaluation software.

[15] = target: T1, human serum albumin; assay: SPR (Biacore), construct captured, HSA injected

B1: FabB-didAb, -dAbL1 (CK-G4Sx2) & dAbH1 (CH1-G4Sx2) (bispecific antibody)
heavy: ASTKGPSVFPLAPSSKSTSGGTAALGCLVKDYFPEPVTVSWNSGALTSGVHTFPAVLQSSGLYSLSSVVTVPSSSLGTQTYICNVNHKPSNTKVDKKVEPKSCGGGGSGGGGSEVQLLESGGGLVQPGGSLRLSCAVSGIDLSNYAINWVRQAPGKGLEWIGIIWASGTTFYATWAKGRFTISRDSTTVYLQMNSLRAEDTAVYYCARTVPGYSTAPYFDLWGQGTLVTVSS
light: RTVAAPSVFIFPPSDEQLKSGTASVVCLLNNFYPREAKVQWKVDNALQSGNSQESVTEQDSKDSTYSLSSTLTLSKADYEKHKVYACEVTHQGLSSPVTKSFNRGECGGGGSGGGGSDIVMTQSPSSVSASVGDRVTITCQSSPSVWSNFLSWYQQKPGKAPKLLIYEASKLTSGVPSRFKGSGSGTDFTLTISSLQPEDFATYYCGGGYSSISDTTFGGGTKVEIK
notes: also called FabB-645Fv (G4Sx2); FabB-645Fv (2xG4S)
Kd [1]: 6.72 nM | Kd [2]: 8.01 nM | Kd [3]: 17.5 nM | Kd [4]: 24.7 nM | Kd [5]: 12.5 nM | Kd [6]: 13.3 nM | Kd [7]: 9 nM | koff [7]: 0.00016 s⁻¹ | kon [7]: 17800 M⁻¹ s⁻¹ | Kd [8]: 7.1 nM | Kd [9]: 10.7 nM

B2: FabB-645dsFv (S3×G4S), Fv heavy mutation Y100cA (bispecific antibody, V domains shown)
VH: EVQLLESGGGLVQPGGSLRLSCAVSGIDLSNYAINWVRQAPGKCLEWIGIIWASGTTFYATWAKGRFTISRDSTTVYLQMNSLRAEDTAVYYCARTVPGYSTAPAFDLWGQGTLVTVSS
VL: DIVMTQSPSSVSASVGDRVTITCQSSPSVWSNFLSWYQQKPGKAPKLLIYEASKLTSGVPSRFKGSGSGTDFTLTISSLQPEDFATYYCGGGYSSISDTTFGCGTKVEIK
Kd [10]: 87 nM | koff [10]: 0.00107 s⁻¹ | kon [10]: 12300 M⁻¹ s⁻¹

B3: Antibody 1 (Antibody 645) as humanised IgG (antibody, V domains shown)
VH: B2 VH with C44G, A105Y
VL: B2 VL with C103G
notes: tested as humanised IgG; one grafted VH and one grafted VL were designed for this antibody
Kd [11]: 0.82 nM | Kd [12]: 2.9 nM | Kd [13]: 7.9 nM

B4: FabB-didAb, -dAbL2 (CK-G4Sx2) & dAbH2 (CH1-G4Sx2) (bispecific antibody)
heavy: ASTKGPSVFPLAPSSKSTSGGTAALGCLVKDYFPEPVTVSWNSGALTSGVHTFPAVLQSSGLYSLSSVVTVPSSSLGTQTYICNVNHKPSNTKVDKKVEPKSCGGGGSGGGGSEVQLVESGGGLVQPGGSLRLSCAVSGFSLSRYAMTWVRQAPGKGLEWIGTITTGGNTNYANWAKGRFTISKDSTTVYLQMNSLRAEDTAVYYCARGGYVSYADATELSLWGQGTLVTVSS
light: RTVAAPSVFIFPPSDEQLKSGTASVVCLLNNFYPREAKVQWKVDNALQSGNSQESVTEQDSKDSTYSLSSTLTLSKADYEKHKVYACEVTHQGLSSPVTKSFNRGECGGGGSGGGGSDIVMTQSPSTLSASVGDRVTITCQASQSIGSRLAWYQQKPGKAPKLLIYYASTVASGVPSRFKGSGSGTEFTLTISSLQPDDFATYYCQSYDYSSSSSYAFGGGTKVEIK
notes: also called FabB-648Fv (G4Sx2); FabB-648Fv (2xG4S)
Kd [4]: 42.4 nM

B5: Antibody 2 (Antibody 648) as humanised IgG (antibody, V domains shown)
VH: EVQLVESGGGLVQPGGSLRLSCAVSGFSLSRYAMTWVRQAPGKGLEWIGTITTGGNTNYANWAKGRFTISKDSTTVYLQMNSLRAEDTAVYYCARGGYVSYADATELSLWGQGTLVTVSS
VL: DIVMTQSPSTLSASVGDRVTITCQASQSIGSRLAWYQQKPGKAPKLLIYYASTVASGVPSRFKGSGSGTEFTLTISSLQPDDFATYYCQSYDYSSSSSYAFGGGTKVEIK
notes: as for B3
Kd [12]: 23 nM | Kd [13]: 54 nM

B6: Fab′A (Fab, V domains shown)
VH: EVQLVESGGGLVQPGGSLRLSCAFSGFSLSTSGVGVGWVRQAPGKGLEWVAHIWWDGDESYNPSLKTQFTISKDTSKNTVYLQMNSLRAEDTAVYYCARNRYDPPWFVDWGQGTLVTVSS
VL: DIQMTQSPSSLSASVGDRVTITCRASQDISNYLSWYQQKPGKAPKLLIYYTSKLHSGVPSRFSGSGSGTDYTLTISSLQPEDFATYYCQQGKMLPWTFGQGTKVEIKR
Kd [14]: 0.32 nM | koff [14]: 6.46e-05 s⁻¹ | kon [14]: 202000 M⁻¹ s⁻¹

B7: FabA (Fab, V domains shown)
VH: B6 VH
VL: B6 VL
binding result [15]: no binding
